B1: neuron-derived neurotrophic factor (NENF) [human (endogenous in NTera2 and in fibroblasts)] / DJ-1 WT fused with FLAG [human] (parent complex)
chain 1: GQTPRPAERGPPVRLFTEEELARYGGEEEDQPIYLAVKGVVFDVTSGKEFYGRGAPYNALTGKDSTRGVAKMSLDPADLTHDTTGLTAKELEALDEVFTKVYKAKYPIVGYTARRILNEDGSPNLDFKPEDQPHFDIKDEF
chain 2: MASKRALVILAKGAEEMETVIPVDVMRRAGIKVTVAGLAGKDPVQCSRDVVICPDASLEDAKKEGPYDVVVLPGGNLGAQNLSESAAVKEILKEQENRKGLIAAICAGPTALLAHEIGFGSKVTTHPLAKDKMMNGGHYTYSENRVEKDGLILTSRGPGTSFEFALAIVEALNGKEVAAQVKAPLVLKD

Variants of: B1
Assay: co-immunoprecipitation (anti-FLAG IP, immunoblot with anti-NENF), band intensity; DJ-1 KO DNLCs; NENF band relative to FLAG (LC)

Row | percent of parent [%] | Variant
1 | 45 | chain 2 V51A
2 | 73 | chain 2 H126A

More lines, now with the values behind:

Row | Variant | percent of parent [%]
3 | chain 2 C53A | 23
4 | chain 2 E163K | 0

Source: article PMC6831851 (2019)
